For data set [1], the target named is RefZ-His6 (wild-type RefZ) (Bacillus subtilis). The experiment in a line: crystal structure; RefZ-His6 at ~5 mg/ml, dialyzed into 50 mM Tris-HCl pH 8.5, 300 mM KCl with RBM dsDNA added (4:1 RefZ:DNA); hanging-drop vapor diffusion at 16°C; no DNA seen in the crystal; one molecule in the asymmetric unit of a P4(1)2(1)2 lattice; 2.6 Å.
For the next data set, the target named is T1, RefZ E53K-His6 (Bacillus subtilis 168, UniProt O34970 1-207, E53K).
T1 sequence: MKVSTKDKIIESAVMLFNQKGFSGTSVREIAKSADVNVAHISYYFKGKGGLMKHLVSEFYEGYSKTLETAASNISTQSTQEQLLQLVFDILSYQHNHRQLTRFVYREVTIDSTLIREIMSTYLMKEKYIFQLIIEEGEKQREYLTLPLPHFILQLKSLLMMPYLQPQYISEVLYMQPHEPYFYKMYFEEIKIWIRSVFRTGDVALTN
Put plainly: BLI; Kd within 2-fold of WT; 150 mM KCl, 10 mM Tris-HCl pH 8.0; EMSA 10 nM DNA, 30 min, gel at room temperature; BLI 800 nM protein, 30 C. The settings on record: protein: recombinant; tags: C-terminal His6 (pET-24b NheI/XhoI); chain copies: 2; label: 5' biotin on S27 strand; blunt. Background: In BLI a coated tip is dipped into the sample, and binding shifts an interference pattern.

Another data set has as its target T2, RefZ R116S-His6 (Bacillus subtilis 168, UniProt O34970 1-207, R116S).
T2 sequence: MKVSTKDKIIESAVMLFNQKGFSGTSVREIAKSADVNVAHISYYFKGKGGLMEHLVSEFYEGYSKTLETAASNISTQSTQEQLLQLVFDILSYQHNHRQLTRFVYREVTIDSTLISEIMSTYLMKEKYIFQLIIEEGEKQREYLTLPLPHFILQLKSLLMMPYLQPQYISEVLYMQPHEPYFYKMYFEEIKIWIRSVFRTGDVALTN
The description is as above. The settings on record: protein: recombinant; tags: C-terminal His6 (pET-24b NheI/XhoI); chain copies: 2; label: 5' biotin on S27 strand; blunt.

The target in a further data set is T3, RefZ E61K-His6 (Bacillus subtilis 168, UniProt O34970 1-207, E61K).
T3 sequence: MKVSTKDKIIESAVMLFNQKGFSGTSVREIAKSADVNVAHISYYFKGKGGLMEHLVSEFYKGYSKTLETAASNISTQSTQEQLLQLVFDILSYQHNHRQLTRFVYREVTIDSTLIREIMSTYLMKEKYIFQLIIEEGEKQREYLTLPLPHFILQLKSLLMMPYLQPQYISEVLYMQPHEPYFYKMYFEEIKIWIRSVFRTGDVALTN
Described as above. The settings on record: protein: recombinant; tags: C-terminal His6 (pET-24b NheI/XhoI); chain copies: 2; label: 5' biotin on S27 strand; blunt.

The next data set deals with T4, RefZ E117D-His6 (Bacillus subtilis 168, UniProt O34970 1-207, E117D).
T4 sequence: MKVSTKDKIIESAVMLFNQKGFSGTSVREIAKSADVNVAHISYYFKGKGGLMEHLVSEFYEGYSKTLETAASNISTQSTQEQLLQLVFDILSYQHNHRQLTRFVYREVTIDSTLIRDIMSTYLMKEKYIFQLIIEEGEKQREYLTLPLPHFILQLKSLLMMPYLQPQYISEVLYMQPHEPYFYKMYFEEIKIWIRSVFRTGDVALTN
The description is as above. The settings on record: protein: recombinant; tags: C-terminal His6 (pET-24b NheI/XhoI); chain copies: 2; label: 5' biotin on S27 strand; blunt.

The next data set concerns the target T5, RefZ R102C-His6 (Bacillus subtilis 168, UniProt O34970 1-207, R102C).
T5 sequence: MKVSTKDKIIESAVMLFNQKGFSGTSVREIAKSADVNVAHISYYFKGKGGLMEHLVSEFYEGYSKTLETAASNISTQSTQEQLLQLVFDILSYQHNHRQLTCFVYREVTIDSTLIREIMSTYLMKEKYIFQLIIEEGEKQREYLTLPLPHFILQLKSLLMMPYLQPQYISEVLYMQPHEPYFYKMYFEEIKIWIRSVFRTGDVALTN
Described as above. The following applies: protein: recombinant; tags: C-terminal His6 (pET-24b NheI/XhoI); chain copies: 2; label: 5' biotin on S27 strand; blunt.

A further data set has as its target T6, RefZ R102S-His6 (Bacillus subtilis 168, UniProt O34970 1-207, R102S).
T6 sequence: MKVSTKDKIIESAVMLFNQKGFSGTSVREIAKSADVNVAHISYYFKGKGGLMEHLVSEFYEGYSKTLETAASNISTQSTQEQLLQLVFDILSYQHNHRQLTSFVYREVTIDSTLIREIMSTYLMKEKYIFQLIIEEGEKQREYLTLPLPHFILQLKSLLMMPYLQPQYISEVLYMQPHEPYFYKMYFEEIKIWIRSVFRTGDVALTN
Described as above. The following applies: protein: recombinant; tags: C-terminal His6 (pET-24b NheI/XhoI); chain copies: 2; label: 5' biotin on S27 strand; blunt.

A further data set has as its target T7, RefZ E179K-His6 (Bacillus subtilis 168, UniProt O34970 1-207, E179K).
T7 sequence: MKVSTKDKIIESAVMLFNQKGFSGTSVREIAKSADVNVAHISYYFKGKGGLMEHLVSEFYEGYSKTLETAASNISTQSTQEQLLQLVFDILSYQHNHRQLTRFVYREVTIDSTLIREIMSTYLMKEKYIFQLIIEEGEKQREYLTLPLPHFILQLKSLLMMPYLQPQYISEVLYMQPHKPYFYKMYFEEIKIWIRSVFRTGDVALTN
The description is as above. The following applies: protein: recombinant; tags: C-terminal His6 (pET-24b NheI/XhoI); chain copies: 2; label: 5' biotin on S27 strand; blunt.

A further data set has as its target T8, RefZ E117G-His6 (Bacillus subtilis 168, UniProt O34970 1-207, E117G).
T8 sequence: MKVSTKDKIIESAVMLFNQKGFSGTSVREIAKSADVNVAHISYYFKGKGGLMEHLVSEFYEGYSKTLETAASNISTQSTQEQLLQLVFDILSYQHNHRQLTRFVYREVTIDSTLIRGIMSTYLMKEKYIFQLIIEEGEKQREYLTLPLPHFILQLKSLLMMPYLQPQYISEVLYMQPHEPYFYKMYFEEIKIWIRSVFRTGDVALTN
The experiment in a line: BLI; within 2-fold of WT, P = 0.025; 150 mM KCl, 10 mM Tris-HCl pH 8.0; EMSA 10 nM DNA, 30 min, gel at room temperature; BLI 800 nM protein, 30 C. The settings on record: protein: recombinant; tags: C-terminal His6 (pET-24b NheI/XhoI); chain copies: 2; label: 5' biotin on S27 strand; blunt.

The target of another data set is T9, RefZ-His6 (WT) (Bacillus subtilis PY79, UniProt O34970 1-207).
T9 sequence: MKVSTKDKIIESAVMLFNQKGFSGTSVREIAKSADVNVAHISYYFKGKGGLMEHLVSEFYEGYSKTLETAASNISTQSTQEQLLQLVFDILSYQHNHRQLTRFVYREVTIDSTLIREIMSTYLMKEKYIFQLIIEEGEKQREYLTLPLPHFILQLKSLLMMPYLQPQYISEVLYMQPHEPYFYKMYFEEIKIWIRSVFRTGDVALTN
Put plainly: BLI; Kd value only in Fig. 6 image; reference; 150 mM KCl, 10 mM Tris-HCl pH 8.0; EMSA 10 nM DNA, 30 min, gel at room temperature; BLI 800 nM protein, 30 C. The following applies: protein: recombinant; tags: C-terminal His6 (pET-24b NheI/XhoI); chain copies: 2; label: 5' biotin on S27 strand; blunt.

Regarding “RefZ-His6 (wild-type RefZ) (natural protein)”, in data set [1], the stoichiometry N (commonly the number of molecules, sites or subunits per partner or assembly) is 2.

B1: RBML1 41-bp (dsDNA)
DNA 1: GCCTTTTCGTTTTGAACAAACGTTTGATTAAAACAAATAGC
DNA 2: GCTATTTGTTTTAATCAAACGTTTGTTCAAAACGAAAAGGC
With B1, the binding result with RefZ E53K-His6, with RefZ R116S-His6, in the data set with RefZ E61K-His6, with RefZ E117D-His6, with RefZ R102C-His6 and with RefZ R102S-His6 was “binds” in each case. Further, the binding result in the data set with RefZ E179K-His6, with RefZ E117G-His6 and with RefZ-His6 (WT) was “binds” in each case.

The record behind these values is article PMC6657595, “A DNA-Binding Protein Tunes Septum Placement during Bacillus subtilis Sporulation”.
